Data published in the DeepSol protein solubility set.

Assay: soluble on expression in E. coli; label from the status in PepcDB or PDB records

Sequence | soluble on expression in E. coli
SNAMDIVSVALQRYSTKAFDPSKKLTAEEADKIKTLLQYSPSSTNSQPWHFIVASTEEGKARVAKSAAGNYTFNERKMLDASHVVVFCAKTAMDDAWLERVVDQEDADGRFATPEAKAANDKGRRFFADMHRVSLKDDHQWMAKQVYLNVGNFLLGVAAMGLDAVPIEGFDAEVLDAEFGLKEKGYTSLVVVPVGHHSVEDFNAGLPKSRLPLETTLTEV | soluble
MLRTPNNRHKIDSILVLGTAQYDGVPSRQFAARLRHAAKLWRLHEIQHVYTVGGKLPGDRFTEAEVAREYLIKEGVDPDLIFVSAVGNDTVSSYEALDPEKLGRVLIVTDPNHSYRAVRIARRMGFDAKPSPTTYSPAKFPSIVYFLTLSHEWGGVVVQDVSRLLGERVADKVEASLRAIQGLLRPSRRARHEQLRRLKKLEHHHHHH | soluble
MTITGIIAEFNPFHNGHKYLLDQAEGLKIVAMSGNFMQRGEPAIVDKWTRTQMALENGADLVVELPFLVSVQAADFFGQGAMDILDRLGIDSLVFGTEEVRDYQKIADLYTEKGAEMEKFVENLPDSLSYPQKTQAMWKEFAGLDFSGNTPNHVLALAYAKAVAGRNIKLHPIQRQGAGYHSVNKDVDFASATALRQHQKDQDFLERFMPSVALFEQASKVIWEDYFPLLRYQILSNPDLTTIYQVNQEMAVRIKEAIKTAQSVEELVELVTTKRYTKARVRRLLTYILMQARESDLPEAIHVLGFTEKGRQHLKSLKGQVSLVSRIGKEPWDAMTQKADQIYQLGKPSIAEQNFGRVPIRIETN | soluble
MALSKVKLNDTLNKDQLLSSSKYTIQRSTGDSIDTPNYDVQKHINKLCGMLLITEDANHKFTGLIGMLYAMSRLGREDTIKILRDAGYHVKANGVDVTTHRQDINGKEMKFEVLTLASLTTEIQINIEIESRKSYKKMLKEMGEVAPEYRHDSPDCGMIILCIAALVITKLAAGDRSGLTAVIRRANNVLKNEMKRYKGLLPKDIANSFYEVFEKHPHFIDVFVHFGIAQSSTRGGSRVEGIFAGLFMNAYGAGQVMLRWGVLAKSVKNIMLGHASVQAEMEQVVEVYEYAQKLGGEAGFYHILNNPKASLLSLTQFPHFSSVVLGNAAGLGIMGEYRGTPRNQDLYDAAKAYAEQLKENGVINYSVLDLTAEELEAIKHQLNPKDNDVEL | soluble
MSLTTIRVFDTTLRDGEQMPGVSLPLEYKIRIAKQLDKLGVDVIEAGFPSATKGEFESVKEISSLSLNAEICGLARIVKEDIDAAINANVDMVHIFVPTSRIQIEHTVKMSKEEIIEKSVECVEYIKSHGVKCMFSAMDATRTEVEYLKQIFKAVENAKVDIVNVPDTVGVATPFKFYELIKQLREHLKVPIDVHCHNDFGLAVANTYAAVMAGANEVQVTVNGIGERAGNADLAQVVMILHAIEGIKTNIKTEHLFETSKLVERLTGVKMPPNHPIVGENAFSHESGIHAHGVLKEYSEGHHHHHH | soluble
MSLGLHACIDPIAVAHNLEVLRQRLGVGVDGPRIWATVKADAYGHGLHNVLPGLRAADGIAVRHLHEAHQCRRVGWSGPIMVYAGLTHEREAALLTLQQLHLVITDMTQLEWLPGKPLYSCAPWIWLRYIGATRLGGLDASEYRRAYARCRELQQHGALRGVGHLNHYANAASVGDLEREHADFEACIRGLPGPVSTCNSAAACVLPTMAARTDWVRPGLALYGVSPIPGRAGRDLGLRPAMTLRSTLCATQNLPAGASVGYGCTFVADQPMALGLVRCGYGDGYPHNPRASFPVQVDGVLTRTVGRISMDLMAVDLRPIPAAARGAPVVLWGSPQLPVEHIAHAAGTIAAELLTGLTARVPLMRADHAALLREGHHHHHH | soluble
MAHHHHHHMNVFDCTLCVATTISQFLVDEVMKQVSLYGGFRHVVRCHGNPQEDFMDVKQSGEPIVLLIANQAGREALKFLCDDYHLPKEQRRVLWIHSISSGLDSYKLNELVKELQDIPLTNARGCYSSILAEHVMYSMLYFYRQTWRSLASRAEHKWDPFLMVELRGRKVGIIGYGDIGRASAKLLSAFGMEVTGVKRSASTKEVDEYGVRLVHGDAERERVLRESDFVVNILPGTEETKRLFNKELFSMMKPSAVYINIGRGITQNEDDLACALRDGVIRGASVDVFEREPLPAESPLWDISDDKILLTYHNAVLSDDFCKKAIDCFMLLARDFGSDGFASNVIQIDKFYCG | soluble
MSLHIIILSPVMPIWDRGVFCSSFTKLCLARGFHITLLDTLSLFPSHSAFCNNSTVEILPFITEKLKKYFKEPSVLVGFSMAGMLVQILAARLPNVQAVLAVNAPGYPDKPLKRQIGCILTFLKNKDLSGALEILNSFMCPRGGREKRVLWEIPDEQKSVAIERMTRGFTFLLGGDARDEIIKYTGKFLALIGEKSQLATLANQTKSQCLNHEYQVISGAGTRLWDDNPAMTNAIVHKWIDAL | not soluble
MGHHHHHHENLYFQSHLYFQSHERLSEKKIKNLLTSKQQRQQYEIKQRSMLRHLAELRRHSRFRRLCTKPASSSMPASTSSVDRRTTRRSTSQTSLSPSNSSGYGSVFGCEEHDVDKIPSLNGFAKLKRRRSSCVGAPTPNSKRSKNNMGVIAKRPPKGEYVVERIECVEMD | not soluble
SPDEQLLKQVSELLQQGEHAQALNVIQTLSDELQSRGDVKLAKADCLLETKQFELAQELLATIPLEYQDNSYKSLIAKLELHQQAAESPELKRLEQELAANPDNFELACELAVQYNQVGRDEEALELLWNILKVNLGAQDGEVKKTFMDILSALGQGNAIASKYRRQLYSILY | soluble
